Laboratory results as given in the supplement of paper PMC9233669.
Variants at the floor of the assay were thinned out.

Assays:
biotinyl-Phe-oxazolone = experiment: self-aminoacylation, catalytic enhancement (BFO) (fold over background); higher = more active; k-Seq, kA / k0A0; sequences stand for … in GGGAAUGGAUCCACAUCUACGAAUUC…UUCACUGCAGACUUGACGAAGCUG
Summary of the method: (§1)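 Working in 50 μL HEPES/NaCl/KCl/MgCl2/CaCl2 buffer with 5% acetonitrile at pH 6.9–7.0, mutagenized RNA pools (0.43 μM; 21-nt variable region) were reacted with 2–1250 μM of each biotinyl-aminoacyl-oxazolone for 90 minutes at room temperature. Streptavidin capture followed, with quantification by triplicate qPCR and Illumina sequencing. Catalytic enhancement is reported as median kA over the uncatalyzed rate, the low-activity peak of a bimodal Gaussian fit to the data.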

biotinyl-Val-oxazolone = experiment: self-aminoacylation, catalytic enhancement (BVO) (fold over background); higher = more active; k-Seq, kA / k0A0; sequences stand for … in GGGAAUGGAUCCACAUCUACGAAUUC…UUCACUGCAGACUUGACGAAGCUG
Summary of the method: as §1

biotinyl-Met-oxazolone = experiment: self-aminoacylation, catalytic enhancement (BMO) (fold over background); higher = more active; k-Seq, kA / k0A0; sequences stand for … in GGGAAUGGAUCCACAUCUACGAAUUC…UUCACUGCAGACUUGACGAAGCUG
Summary of the method: as §1

biotinyl-Ile-oxazolone = experiment: self-aminoacylation, catalytic enhancement (BIO) (fold over background); higher = more active; k-Seq, kA / k0A0; sequences stand for … in GGGAAUGGAUCCACAUCUACGAAUUC…UUCACUGCAGACUUGACGAAGCUG
Summary of the method: as §1

biotinyl-Trp-oxazolone = experiment: self-aminoacylation, catalytic enhancement (BWO) (fold over background); higher = more active; k-Seq, kA / k0A0; sequences stand for … in GGGAAUGGAUCCACAUCUACGAAUUC…UUCACUGCAGACUUGACGAAGCUG
Summary of the method: as §1

biotinyl-Leu-oxazolone = experiment: self-aminoacylation, catalytic enhancement (BLO) (fold over background); higher = more active; k-Seq, kA / k0A0; sequences stand for … in GGGAAUGGAUCCACAUCUACGAAUUC…UUCACUGCAGACUUGACGAAGCUG
Summary of the method: as §1

Sequence | self-aminoacylation (biotinyl-Phe-oxazolone) | self-aminoacylation (biotinyl-Val-oxazolone) | self-aminoacylation (biotinyl-Met-oxazolone) | self-aminoacylation (biotinyl-Ile-oxazolone) | self-aminoacylation (biotinyl-Trp-oxazolone) | self-aminoacylation (biotinyl-Leu-oxazolone)
AAAUCUGCUAAUAGUCGCAAG [Fam3.1 aminoacylation ribozyme variant] | 19.3 | 2.04 | 2.01 | 2.48 | 9.08 | –
AAAUUUACUAAUAGUCGCAAG [Fam3.1 aminoacylation ribozyme variant] | 3.14 | 2.21 | 2.27 | 2.35 | 2.31 | 1.89
AAAUUUGCUAAAAGUCGCAAG [Fam3.1 aminoacylation ribozyme variant] | 2.5 | 1.75 | 1.93 | 2.08 | 2.75 | 2.26
AAAUUUGCUAACAGUCGCAAG [Fam3.1 aminoacylation ribozyme variant] | 2.2 | – | – | 2.02 | – | –
AAAUUUGCUAAUAGUCGCAAU [Fam3.1 aminoacylation ribozyme variant] | 2.52 | 2.13 | 2.35 | 2.71 | 3.09 | 2.33
AAAUUUGCUAAUAGUGGCAAG [Fam3.1 aminoacylation ribozyme variant] | 0.608 | 0.74 | 0.697 | 1.01 | 0.533 | 0.7
AAAUUUGCUGAUAGUCGCAAG [Fam3.1 aminoacylation ribozyme variant] | 2.14 | 1.69 | 1.97 | 1.73 | 2.23 | 1.86
AACACCCUGGUCAUCGAGUGA [Fam2.1 aminoacylation ribozyme variant] | 7.58 | 4.39 | 7.5 | 4.52 | 8.34 | 6.79
AACCACCUAGGUCAUCGGGUG [Fam2.2 aminoacylation ribozyme variant] | 28.8 | 4.48 | 5.6 | 3.78 | 6.68 | 4.62
AACUUGGCUAAUAGUCGCAAG [Fam3.1 aminoacylation ribozyme variant] | 2.88 | 1.71 | 2 | 2.42 | 2.31 | 2.62
AACUUUGCCAAUAGUCGCAAG [Fam3.1 aminoacylation ribozyme variant] | 14.7 | 2.64 | 2.79 | 2.62 | 3.85 | 2.81
AACUUUGCGAAUAGUCGCAAG [Fam3.1 aminoacylation ribozyme variant] | 4.36 | 2.4 | 2.67 | 2.42 | 2.9 | 2.6
AACUUUGCUAAAAGUCGCAAG [Fam3.1 aminoacylation ribozyme variant] | 6.96 | 2.54 | 2.47 | 3.11 | 4.13 | 2.98
AACUUUGCUAAUACUCGCAAG [Fam3.1 aminoacylation ribozyme variant] | 2.02 | – | – | 2.19 | – | –
AACUUUGCUAAUAGUCACAAG [Fam3.1 aminoacylation ribozyme variant] | 3.95 | 2.09 | 1.47 | 2.2 | 2.52 | 1.87
AACUUUGCUAAUAGUCGCAGG [Fam3.1 aminoacylation ribozyme variant] | 14.1 | 2.29 | 3.29 | 2.29 | 3.48 | 2.75
AACUUUGCUAAUAGUCGCGAG [Fam3.1 aminoacylation ribozyme variant] | 19.5 | 2.76 | 2.99 | 3.52 | 3.11 | 3.74
AACUUUGCUAAUAGUCGCUAG [Fam3.1 aminoacylation ribozyme variant] | 2.6 | 1.64 | 2.22 | 2.28 | 1.84 | 2.78
AACUUUGCUAAUAGUCUCAAG [Fam3.1 aminoacylation ribozyme variant] | 3.43 | 1.42 | 1.39 | 1.47 | 1.5 | 1.54
AACUUUGCUAUUAGUCGCAAG [Fam3.1 aminoacylation ribozyme variant] | 4.36 | 2 | 2.34 | 2.57 | 2.99 | 2.73
AAGAGUGCUAAUAGUCGCAAG [Fam3.1 aminoacylation ribozyme variant] | 3.44 | 1.73 | 1.82 | 2.29 | 1.89 | 2.19
AAGAUUGCUAAUACUCGCAAG [Fam3.1 aminoacylation ribozyme variant] | 1.48 | 1.37 | 1.41 | 1.72 | 1.91 | 1.24
AAGAUUGCUAAUAGUCGCAGG [Fam3.1 aminoacylation ribozyme variant] | 7.75 | 1.64 | 1.49 | 1.34 | 1.83 | 2.05
AAGAUUGCUAAUAGUGGCAAG [Fam3.1 aminoacylation ribozyme variant] | 0.997 | 0.702 | 0.871 | 0.786 | 0.941 | 0.906
AAGAUUGCUAAUCGUCGCAAG [Fam3.1 aminoacylation ribozyme variant] | 1.34 | 1.52 | 1.57 | 2.12 | 2.1 | 1.2
AAGAUUGCUAUUAGUCGCAAG [Fam3.1 aminoacylation ribozyme variant] | 1.79 | 1.6 | 1.55 | 1.73 | 1.87 | 1.62
AAGAUUGGUAAUAGUCGCAAG [Fam3.1 aminoacylation ribozyme variant] | 1.65 | 1.59 | 1.75 | 2.04 | 2.54 | 2.02

Sequence | self-aminoacylation (biotinyl-Phe-oxazolone) | self-aminoacylation (biotinyl-Val-oxazolone) | self-aminoacylation (biotinyl-Met-oxazolone) | self-aminoacylation (biotinyl-Ile-oxazolone) | self-aminoacylation (biotinyl-Trp-oxazolone) | self-aminoacylation (biotinyl-Leu-oxazolone)
AAGCAUGCUAAUAGUCGCAAG [Fam3.1 aminoacylation ribozyme variant] | 6.71 | – | 2.61 | 2.36 | 2.61 | –
AAGCUUGCUAAUAGACGCAAG [Fam3.1 aminoacylation ribozyme variant] | 1.7 | 0.9 | 1.51 | 0.821 | 0.574 | 0.763
AAGCUUGCUAAUAGUCGCCAG [Fam3.1 aminoacylation ribozyme variant] | 14.9 | 2.33 | 2.39 | 2.3 | 3.3 | 2.63
AAGCUUGCUAAUAGUCGUAAG [Fam3.1 aminoacylation ribozyme variant] | 8.49 | 1.48 | 1.12 | 1.26 | 2.69 | 0.843
AAGCUUGCUAAUAUUCGCAAG [Fam3.1 aminoacylation ribozyme variant] | – | 2.13 | – | 2.47 | 3.38 | –
AAGUUAGCCAAUAGUCGCAAG [Fam3.1 aminoacylation ribozyme variant] | 2.56 | – | 2.22 | 2.02 | 2.28 | 2.35
AAGUUCGCUAAUAGUCGCACG [Fam3.1 aminoacylation ribozyme variant] | 2.18 | – | – | 2.34 | – | 2.35
AAUACCCUCGUCAUCGAGUGA [Fam2.1 aminoacylation ribozyme variant] | 3.81 | – | 2.53 | 2.08 | 3.7 | 3
AAUUUUGCUAAAAGUCGCAAG [Fam3.1 aminoacylation ribozyme variant] | 2.77 | – | – | 2.1 | 3.11 | 2.38
ACGUCUGCUAAUAGUCGCAAG [Fam3.1 aminoacylation ribozyme variant] | 32.2 | – | 2.12 | 2.02 | 8.61 | –
AUUACUCUGGCCAUCGAGUGA [Fam2.1 aminoacylation ribozyme variant] | 11.7 | – | 3.15 | 2.06 | 4.19 | 3.55
AUUCAACUAGGACAUCGGGUG [Fam2.2 aminoacylation ribozyme variant] | 17 | – | 2.42 | 2.05 | 2.79 | 3.38
AUUCACCUAGGUCAACGAGUG [Fam2.2 aminoacylation ribozyme variant] | 5.07 | – | 2.6 | 2.07 | – | 3.76
AUUCACUUAGGUCAGCGGGUG [Fam2.2 aminoacylation ribozyme variant] | 15.6 | – | 2.99 | 2.5 | 2.75 | 3.88
AUUCCCCUGGUCAUCGAGUGG [Fam2.1 aminoacylation ribozyme variant] | – | 2.18 | 2.48 | 2.29 | 3.73 | 3.15
AUUCUCCUAGGUCAUCGGCUG [Fam2.2 aminoacylation ribozyme variant] | 9.44 | 2.51 | 2.49 | 2.19 | – | 2.54
CAGUCUGCUAAUAGUCGCAAG [Fam3.1 aminoacylation ribozyme variant] | 28.2 | – | 2.86 | 2.14 | 9.53 | –
CAGUUUGCUAAUAGUCGCAAA [Fam3.1 aminoacylation ribozyme variant] | 4.61 | – | – | 2.35 | – | –
CCACAAUUCAAGCAAUCGCUC [Fam1B.1 aminoacylation ribozyme variant] | – | 2.12 | 2.18 | 2.51 | – | 2.38
CCACACUUAAAGCAAUCGGGC [Fam1B.1 aminoacylation ribozyme variant] | – | – | – | 2.19 | – | –
CCACACUUCAAGCAAACGGCC [Fam1B.1 aminoacylation ribozyme variant] | – | 3.77 | – | 2.6 | 3.66 | 3.75
CCACACUUCAAGCAAUGGGUG [Fam1B.1 aminoacylation ribozyme variant] | 10.7 | 2.24 | 2.61 | – | 2.39 | 3
CCACACUUCAAGCAAUUGGUG [Fam1B.1 aminoacylation ribozyme variant] | 5.72 | – | 3.03 | 2.28 | 2.84 | 3.62
CCACACUUCAAGCAUUCGGUU [Fam1B.1 aminoacylation ribozyme variant] | 7.27 | 2.64 | 2.33 | 2.29 | – | 2.35
CCCCACUUCAACCAAUCGGUC [Fam1B.1 aminoacylation ribozyme variant] | 101 | – | – | 2.37 | 53.6 | 2.99
GAGUUUCCUAAUAGUCGCAAG [Fam3.1 aminoacylation ribozyme variant] | 2.31 | 2.08 | – | 2.65 | 2.26 | –
GCACACAUCAAGCAAUCGGUC [Fam1B.1 aminoacylation ribozyme variant] | 3.12 | – | – | 2.01 | 2.22 | –
